Results published in PMC11472053, “Structural basis of DNA recognition by BEN domain proteins reveals a role for oligomerization in unmethylated DNA selection by BANP” (Nucleic Acids Research, 2024).

Assays:
BANP DBD = biological target: T1, BANP DBD (human, UniProt Q8N9N5 361-519); assay: EMSA; ITC: 20 mM Tris pH 7.5, 200 mM NaCl, 2 mM beta-mercaptoethanol, 20 C; EMSA: 20 mM Tris pH 7.0, 200 mM NaCl, 2 mM DTT, 4 C, 1.2% agarose in TAE; conditions: protein: recombinant; tags: His-SUMO or His-MBP, cleaved; blunt, self-complementary
T1 sequence: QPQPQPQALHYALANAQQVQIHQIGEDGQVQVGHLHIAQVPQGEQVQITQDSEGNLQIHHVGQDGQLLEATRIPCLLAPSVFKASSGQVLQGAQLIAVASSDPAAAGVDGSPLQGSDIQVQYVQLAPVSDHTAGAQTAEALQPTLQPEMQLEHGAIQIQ

BANP BEN WT = biological target: T2, BANP BEN WT (human, UniProt Q8N9N5 205-325); assay: ITC; text gives 2.5 uM; ITC: 20 mM Tris pH 7.5, 200 mM NaCl, 2 mM beta-mercaptoethanol, 20 C; EMSA: 20 mM Tris pH 7.0, 200 mM NaCl, 2 mM DTT, 4 C, 1.2% agarose in TAE; conditions: protein: recombinant; tags: His-SUMO or His-MBP, cleaved; chain copies: 2; blunt, self-complementary
T2 sequence: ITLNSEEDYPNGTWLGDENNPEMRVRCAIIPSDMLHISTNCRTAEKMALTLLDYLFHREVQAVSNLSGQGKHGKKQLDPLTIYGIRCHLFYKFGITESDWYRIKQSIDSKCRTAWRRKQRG

BANP BEN K278A = biological target: T3, BANP BEN K278A (human, UniProt Q8N9N5 205-325, K278A); assay: ITC; ITC: 20 mM Tris pH 7.5, 200 mM NaCl, 2 mM beta-mercaptoethanol, 20 C; EMSA: 20 mM Tris pH 7.0, 200 mM NaCl, 2 mM DTT, 4 C, 1.2% agarose in TAE; conditions: protein: recombinant; tags: His-SUMO or His-MBP, cleaved; chain copies: 2; blunt, self-complementary
T3 sequence: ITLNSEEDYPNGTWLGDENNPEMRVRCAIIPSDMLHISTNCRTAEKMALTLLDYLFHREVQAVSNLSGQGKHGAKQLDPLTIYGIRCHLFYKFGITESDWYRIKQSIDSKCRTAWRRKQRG

BANP BEN S313A = biological target: T4, BANP BEN S313A (human, UniProt Q8N9N5 205-325, S313A); assay: as above; conditions: protein: recombinant; tags: His-SUMO or His-MBP, cleaved; chain copies: 2; blunt, self-complementary
T4 sequence: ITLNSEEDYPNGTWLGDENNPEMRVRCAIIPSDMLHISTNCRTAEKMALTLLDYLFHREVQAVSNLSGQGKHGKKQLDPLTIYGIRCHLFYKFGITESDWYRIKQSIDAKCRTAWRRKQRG

BANP full-length WT = biological target: T5, BANP full-length WT (human, UniProt Q8N9N5 1-519); assay: as above; conditions: protein: recombinant; tags: His-SUMO or His-MBP, cleaved; chain copies: 4; blunt, self-complementary
T5 sequence: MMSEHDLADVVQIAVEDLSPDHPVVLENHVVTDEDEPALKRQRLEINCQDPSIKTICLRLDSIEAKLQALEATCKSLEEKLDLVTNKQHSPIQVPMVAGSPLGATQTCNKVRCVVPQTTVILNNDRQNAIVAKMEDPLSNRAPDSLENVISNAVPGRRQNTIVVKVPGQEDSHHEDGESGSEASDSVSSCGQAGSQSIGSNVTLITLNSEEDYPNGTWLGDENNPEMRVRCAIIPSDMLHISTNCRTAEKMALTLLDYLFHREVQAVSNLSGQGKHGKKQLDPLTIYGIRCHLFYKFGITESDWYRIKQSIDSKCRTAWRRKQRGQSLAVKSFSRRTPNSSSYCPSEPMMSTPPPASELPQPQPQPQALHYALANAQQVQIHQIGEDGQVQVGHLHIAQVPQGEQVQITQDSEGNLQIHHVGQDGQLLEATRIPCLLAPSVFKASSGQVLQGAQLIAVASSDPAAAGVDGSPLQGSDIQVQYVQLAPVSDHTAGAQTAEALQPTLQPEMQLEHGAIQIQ

BANP CC-BEN (ΔDBD) = biological target: T6, BANP CC-BEN (ΔDBD) (human, UniProt Q8N9N5 1-360); assay: as above; conditions: protein: recombinant; tags: His-SUMO or His-MBP, cleaved; blunt, self-complementary
T6 sequence: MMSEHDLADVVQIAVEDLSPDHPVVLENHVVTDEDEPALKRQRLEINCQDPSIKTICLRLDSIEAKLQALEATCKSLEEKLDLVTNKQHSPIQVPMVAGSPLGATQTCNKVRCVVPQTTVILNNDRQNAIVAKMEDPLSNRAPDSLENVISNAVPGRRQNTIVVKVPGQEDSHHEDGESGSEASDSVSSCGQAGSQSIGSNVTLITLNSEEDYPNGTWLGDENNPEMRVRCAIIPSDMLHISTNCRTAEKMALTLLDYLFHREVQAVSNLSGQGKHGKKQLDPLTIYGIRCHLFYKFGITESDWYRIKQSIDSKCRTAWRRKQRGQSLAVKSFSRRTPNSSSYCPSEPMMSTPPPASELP

BANP BEN S310A = biological target: T7, BANP BEN S310A (human, UniProt Q8N9N5 205-325, S310A); assay: as above; conditions: protein: recombinant; tags: His-SUMO or His-MBP, cleaved; chain copies: 2; blunt, self-complementary
T7 sequence: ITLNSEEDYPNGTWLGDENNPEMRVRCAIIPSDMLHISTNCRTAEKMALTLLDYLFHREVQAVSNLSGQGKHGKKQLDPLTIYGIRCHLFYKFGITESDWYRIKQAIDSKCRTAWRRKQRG

BANP BEN R316A = biological target: T8, BANP BEN R316A (human, UniProt Q8N9N5 205-325, R316A); assay: as above; conditions: protein: recombinant; tags: His-SUMO or His-MBP, cleaved; chain copies: 2; blunt, self-complementary
T8 sequence: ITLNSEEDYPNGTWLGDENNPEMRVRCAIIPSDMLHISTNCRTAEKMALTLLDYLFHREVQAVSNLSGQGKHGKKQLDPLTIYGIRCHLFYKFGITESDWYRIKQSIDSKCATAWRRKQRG

B1: 12-CGCG (dsDNA)
DNA 1: ATCTCGCGAGAT
DNA 2: ATCTCGCGAGAT
B1 was tested, and the binding result (BANP DBD) was “no binding”, the Kd (BANP BEN WT) was 2.6 ± 0.4 µM and the Kd (BANP BEN K278A) was 35.6 ± 4.1 µM. It also gave a Kd (BANP BEN S313A) of 7.9 ± 1.1 µM, a Kd (BANP full-length WT) of 3.4 ± 0.6 µM and a Kd (BANP CC-BEN (ΔDBD)) of 2.9 ± 0.7 µM. The Kd (BANP BEN S310A) was 12.8 ± 0.9 µM and the Kd (BANP BEN R316A) was 16.8 ± 1.6 µM.
